One molecule from US12228572B2, “Enhanced expression of polo-like kinase 3 (PLK3) in human immunodeficiency virus (HIV)-infected cells” (priority 2021, dated 2025) can be followed below.

“And” between values parts separate entries of the source, which are not always exact repeats. Equal values may be shown once.

One test concerns SIVagm. The experiment in a line: Infectivity of supernatant from transfected 293T cells treated with pSIVagm, on TZM-bl cells. The test is classed as cell-based. Particulars: 48 hours after transfection.
Test [1] concerns HIV-1.
Test [2] has as its system HIV-1. The source holds these as a separate data set.
Another test relates to HIV-189.6. The experiment in a line: Infectivity of supernatant from transfected 293T cells treated with p89.6, on TZM-bl cells. The test is classed as cell-based. To be noted: 48 hours after transfection.
In another test the test system is HIV-1AD8. The experiment in a line: Infectivity of supernatant from transfected 293T cells treated with pAD8, on TZM-bl cells. The test is classed as cell-based. Particulars: 48 hours after transfection.
In a further test the test system is hepatitis B virus (HBV). The experiment in a line: HBs ELISA of HBV virus particles in supernatant of 293T cells treated with HBV replicator. Particulars: overexpression in 293T cells, HBV driven by CMV promoter, 48 hours. The test is classed as cell-based. A general note: In an ELISA, binding on a coated surface is turned into a signal by an enzyme label.
The subject of a further test is HIV-2ROD. In words: Infectivity of supernatant from transfected 293T cells treated with pHIV-2ROD, on TZM-bl cells. The test is classed as cell-based. To be noted: 48 hours after transfection.
Test [3] concerns HIV-1. Particulars: overexpression of the PLK3 protein. From the text: Specific test steps are as follows. All RNAs were extracted for qPCR to measure the Gag transcription level of HIV-1 (FIG. 4). Cells were collected for a flow cytometry test, and the expression level of an HIV-1 p24 protein was detected by using specific antibodies (FIG. 5).
Test [4] has as its system HIV-1. To be noted: overexpression of the PLK3 protein. The source holds these as a separate data set.
For test [5], the system named is HIV-1. To be noted: overexpression of the PLK3 protein. This is another data set of the same source.
A further test deals with HIV-1BaL. The experiment in a line: Infectivity of supernatant from transfected 293T cells treated with pBaL, on TZM-bl cells. The test is classed as cell-based. To be noted: 48 hours after transfection.

B1: PLK3 protein: human PLK3 protein overexpressed from a 3× FLAG-labeled PLK3 protein expression vector (protein, UniProt Q9H4B4 1-646, looked up)
chain: MEPAAGFLSPRPFQRAAAAPAPPAGPGPPPSALRGPELEMLAGLPTSDPGRLITDPRSGRTYLKGRLLGKGGFARCYEATDTETGSAYAVKVIPQSRVAKPHQREKILNEIELHRDLQHRHIVRFSHHFEDADNIYIFLELCSRKSLAHIWKARHTLLEPEVRYYLRQILSGLKYLHQRGILHRDLKLGNFFITENMELKVGDFGLAARLEPPEQRKKTICGTPNYVAPEVLLRQGHGPEADVWSLGCVMYTLLCGSPPFETADLKETYRCIKQVHYTLPASLSLPARQLLAAILRASPRDRPSIDQILRHDFFTKGYTPDRLPISSCVTVPDLTPPNPARSLFAKVTKSLFGRKKKSKNHAQERDEVSGLVSGLMRTSVGHQDARPEAPAASGPAPVSLVETAPEDSSPRGTLASSGDGFEEGLTVATVVESALCALRNCIAFMPPAEQNPAPLAQPEPLVWVSKWVDYSNKFGFGYQLSSRRVAVLFNDGTHMALSANRKTVHYNPTSTKHFSFSVGAVPRALQPQLGILRYFASYMEQHLMKGGDLPSVEEVEVPAPPLLLQWVKTDQALLMLFSDGTVQVNFYGDHTKLILSGWEPLLVTFVARNRSACTYLASHLRQLGCSPDLRQRLRYALRLLRDRSPA
modifications: full-length 3xFLAG tag
notes: human PLK3 protein overexpressed from a 3× FLAG-labeled PLK3 protein expression vector
B1: the “ability to limit infection with SIVagm” value in the test with SIVagm is “has an ability to limit infection”. Besides, the “HIV infectivity reduced to fraction of original level” value with HIV-1 [1] (293T cells with vs without PLK3 protein expression, maximum reduction, 48 hours after transfection) is reported as “about 1/150”. Also, the “HIV-1 infectivity as fraction of that of the negative control group” value in the test with HIV-1 [1] (different expression amounts, 293T cells, pNL4.3, 48 hours) was 1/11 and 1/115. In addition, in the test on HIV-1 [2], the “ability to block HIV-1 infection” value is recorded as “extremely strong ability to block HIV-1 infection”. Also, the “ability to limit infection with HIV-189.6” value in the test with HIV-189.6 is given as “has an ability to limit infection”. Moreover, in the test with HIV-1AD8, the “ability to limit infection with HIV-1AD8” value is reported as “has an ability to limit infection”. Further, in the test on hepatitis B virus (HBV), the “replication and release of the HBV” value is given as “not affected”. Besides, in the test with HIV-2ROD, the “ability to limit infection with HIV-2ROD” value is recorded as “has an ability to limit infection”. Besides, in the test with HIV-1 [3], the “transcription level of virus Gag in cells” value is on record as “not affected” and the “virus Gag protein level” value is recorded as “obviously reduced”. Further, in the test on HIV-1 [4], the “content of genomic RNA of the virus particles in cultured supernatant” value is reported as “greatly decreased”. For the same molecule, the “content of core antigen p24 of virus particles in cultured supernatant” value with HIV-1 [5] is recorded as “greatly decreased”. For the same molecule, in the test with HIV-1BaL, the “ability to limit infection with HIV-1BaL” value is reported as “has an ability to limit infection”.
